Source: the nanobody polyreactivity screen of Harvey et al. (2022)

Assay: yeast display, Sf9 membrane polyspecificity reagent, FACS + sequencing; frameworks hold sequencing errors
Procedure, shortened: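 Nanobodies came from a synthetic yeast display library in Saccharomyces cerevisiae BJ5465, induced with galactose for 36–48 hours and stained for 1 hour at 4 °C with 10% biotinylated, detergent-solubilized Sf9 membrane reagent. Cells were enriched on streptavidin microbeads and then FACS-sorted, with low and high (top ~1%) gates set on anti-HA fluorescence for expression and streptavidin fluorescence for reagent binding. Each polyreactivity label reflects the gate a clone came from. Genes were amplified by colony PCR, sequenced by MiSeq 2 × 250 and filtered by CDR length.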

| Sequence | polyreactivity (PSR sort gate) |
| --- | --- |
| QVQLVESGGGLVQAGGSLRLSCAASGRSFGTYAMGWYRQAPGKERELVAAISRSGGRTYYADSVKGRFTISRDNAKNTVYLQMNSLKPEDTAVYYCAAATGSVPPYDYWGQGTQVTVSS | high polyreactivity |
| QVQLVESGGGLVQAGGSLRLSCAASGRSFVGNAMGWYRQAPGKERELVASITRGGRTNYADSVNGRFTISRDNAKNTVYLQMNSLKPEDTAVYYCNAPGVTRAYLVGYDYWGQGTQVTVSS | low polyreactivity |
| QVQLVESGGGLVQAGGSLRLSCAASGRSIVGYTMGWYTQAPGKERELVAAITSGGSTYYADSVKGRFTISRDNAKNTVYLQMISLKPEDTAVYYCSAYVRYSTPGKLYQYGYWGQGTQVTVSS | high polyreactivity |
| QVQLVESGGGLVQAGGSLRLSCAASGRSLRGYAMGWYRQAPGKERELVAAISRRGGSTRYADSVKGRFTISRDNAKNTVYLQMNSLKPEDTAVYYCAAPDFPKYYPTAYLQADEYWGQGTQVTVSS | high polyreactivity |
| QVQLVESGGGLVQAGGSLRLSCAASGRTCPYYVMGWFRQAPGKERELVAAIRRTGGSTYYADSVKGRFTISRDNAKNTVYLQMNSLKPEDTAVYYFTKSHSILYEGGYDYWGQGTQVTVSS | low polyreactivity |
| QVQLVESGGGLVQAGGSLRLSCAASGRTCRHNAMGWYRQAPGTERELVAAISSSGTNTHYADSVKGRFTISRDNAKNTVYLQMNSLKPEDTAVYYCAADRWGARRKQYHENGYWAQGTQVTVSS | high polyreactivity |
| QVQLVESGGGLVQAGGSLRLSCAASGRTFAANTMGWYRQAPGKERELVAAINAGGSTYYADSVKGRFTISRDTAKNTVYLQMNSLKPEDTAVYYCAAKGSGYYGRQRIYSYTYDYWGQGTQVTVSS | high polyreactivity |
| QVQLVESGGGLVQAGGSLRLSCAASGRTFAAYAMGWYRQAPGKERELGAAISSSSGNTYYADSVKGRFTISRDNAKNTVYLQMYSLKPEDTAVYYCNAQRRFNANYWYDYWGQGTQVTVAS | high polyreactivity |
| QVQLVESGGGLVQAGGSLRLSCAASGRTFAAYAMGWYRQAPGKERELVATIRRGGTTDYADSVKGRFTISRDNAKNTVYLQMNSLKPEDTAVYYCNARSRTYRTRRYDYWGQGTQVTVSS | high polyreactivity |
| QVQLVESGGGLVQAGGSLRLSCAASGRTFAHYTMGWYRQEPGKERELVAGITRGGSTYYADSVKGRFTISRDNAKNNVYLQMNSVKPEDTAVYYCNAVTNYFYRRMEYWGQGTQVTVSS | high polyreactivity |
| QVQLVESGGGLVQAGGSLRLSCAASGRTFAINAMGWYRQATAKERELVADITTDGYTYYADSVKGRFTISRDNAKNTVYLQMNSLKPEDTAVYYCATDSLDYFIRFKQFGYWGQGTQVTVSS | low polyreactivity |
| QVQLVESGGGLVQAGGSLRLSCAASGRTFAINTMGWYRQAPGKEREFVASITRRGGSTYYADSVKVRFTISLDNAKNTVYFQMNSLKPEDTAVYYCNAELRWRLRARAAYYYWGQGSQVTVSS | high polyreactivity |
| QVQLVESGGGLVQAGGSLRLSCAASGRTFAIYAMGWYRQAPGKERELVASISSSGDRTYYADSVKGRFTISRDNAKNTVYLQMNSLKPEDTAVYYCAARWRYTYYYWGQGTQVTVSS | high polyreactivity |
| QVQLVESGGGLVQAGGSLRLSCAASGRTFAIYTMVWSRQAPGKERELVATISGSAGNTYYADSVKGRFTISRDNAKNTVYLQMNSLKPEDTAVYNCAARQRKARQIVLLDYWGQGTQVTVSS | high polyreactivity |
| QVQLVESGGGLVQAGGSLRLSCAASGRTFALYAMGWYRQAPGKERELVAAISSGGSTYYADSVKGRFTISRDNAKNTVYLQMNSLKPEDTAVYYCNARPKWGNRQSVRGYYILSPGGRMNYWGQGTQVTVSS | high polyreactivity |
| QVQLVESGGGLVQAGGSLRLSCAASGRTFANNAMGWYRQAPGKERELVAAISSSDDSTYYADSVKGRFTISRDNAKNTVYLQMNILKPEDTAVYYCAAPYPGHQSRFGYESWGQGTQVTVSS | low polyreactivity |
| QVQLVESGGGLVQAGGSLRLSCAASGRTFANYAMGWSRQAPGKERELVAAISSGGNTYYADSVKGRFTISRDNAKNTVYLQMNSLKPEDTSVYYCNADYLIKYDYWGKGTQVTVSS | high polyreactivity |
| QVQLVESGGGLVQAGGSLRLSCAASGRTFANYAMGWYRQAPGKERELVATITWSDGSTYADSVKGRFTISRDNAKNTVYLQMNSLKPEDTAVYYCATRRYGKVFYPSQYTRYDYWGQGTQVTVSS | high polyreactivity |
| QVQLVESGGGLVQAGGSLRLSCAASGRTFAPNAMGWYRQAPGKEREMVAAISWSGTSTYYADSVKGRFTISRDNAKNTVYLQMNSLKPEDTAVYYCAADLEGSVGSPLTYDYWGQGTQVTVSS | low polyreactivity |
| QVQLVESGGGLVQAGGSLRLSCAASGRTFAPNTMGWYRQAPGKERELVATITVSGGITYADSVKGRFTISRDNAKNTVYLQMNSLKPEDTAVYYCAARTPGWYLPRDYWGQGTQVTVSS | low polyreactivity |
| QVQLVESGGGLVQAGGSLRLSCAASGRTFAQYGMGWYRQAPGKERELVAAISRSGGRTYYADSVKGRFTISRDNAKNTVYLQMNSLKPEDTAVYYCAARAYLISSSTPFWTGYDSWGHGTQVTVSS | low polyreactivity |
| QVQLVESGGGLVQAGGSLRLSCAASGRTFARYAKGWYRQAPGKERELVAVISRTGSTYYADSVKGRFTISRDNAKNTVYLQMNSLKPEDTAVYYCATVYYYLAYGWSYSDMDYWGQGTQVTVSS | high polyreactivity |
| QVQLVESGGGLVQAGGSLRLSCAASGRTFARYAMGWYRQAPGKERELVAAISWSGGRTYYADSVKGRFTISRDNAKNTVYLQMNSLKPEDTAVYYCAASLYRRQMDHWGQGTQVTVSS | high polyreactivity |
| QVQLVESGGGLVQAGGSLRLSCAASGRTFARYDKGWYRQAPGKERELVAGINGDGGSTNYADSVKGRFTISRDNAKNTVYLQMNSLKPEDTAVFYCNVDQEDRKLHVSIKQLSDHWGQGTQVTVSS | low polyreactivity |
| QVQLVESGGGLVQAGGSLRLSCAASGRTFASNAMGWSRQAPGKERELVAAISVTGGRTYYADSVKGRFTISRDNAKNTVYLLMNSLKPEDTAVYYCAKVTKLDPYSYDYWGQGTQVTVSS | low polyreactivity |
| QVQLVESGGGLVQAGGSLRLSCAASGRTFASNAMGWYTQAPGKERELVAAITISGGRTYYADSVKGRFTISRDNAKNTVYLQMNSLIPEDTAVYYCAAAKHSWRPSYYWGGYWGQGTQVTVSS | low polyreactivity |
| QVQLVESGGGLVQAGGSLRLSCAASGRTFASYAMGWYRQAPGKERELVAVISRGGSNTNYADSVTGRFTISRDNAKNTVYLQMNSLKPEDTAVYYCADLAFKRYNPGGYDYWGQGTQVTVSS | high polyreactivity |
| QVQLVESGGGLVQAGGSLRLSCAASGRTFATYAMGWYRQAPGKERELVAAITSGGSTNYADSVKGRFTISRDNAKNTVYLQMNSLKPEDTAVYYCNAYKTNRGSGPWYTGRYDYWGQGTQVTVSS | low polyreactivity |
| QVQLVESGGGLVQAGGSLRLSCAASGRTFAVNVMGWYIPAPGKERELVAAIDFDDGITYYADSVKGRFTISRDNAKNTVYLQMNSLKPEDTAVYYCAAEFVYFGSDYYYWGQGTQVTVSS | high polyreactivity |
| QVQLVESGGGLVQAGGSLRLSCAASGRTFAWYAMGWYRQAPGKERELVAAITTRGSGTYYADSVKGRFTISRDNAKNTVYIQMNSLKPEDTAVYYCAKDPITVTTVDERVYYWGQGTQVTVSS | low polyreactivity |
